Results from PMC8964761.

Columns and labels:
[1] = biological target: FITC conjugated ATF; assay: high-content fluorescence imaging of FITC-ATF on 293T cells (FITC/mRuby3 intensity ratio); details: FITC-ATF for 1 h; uPAR-mRuby3 expressing 293T cells; parent: est. 0.41; read off a plot
[2] = biological target: dimeric suPAR (human) (UniProt Q03405); assay: SEC; suPAR dimer mixed with excess ATF, 30 min at room temperature; complex purified on Superdex 200 10/300 (20 mM Tris pH 7.4, 150 mM KCl) and quantified by SDS-PAGE
UniProt Q03405, sequence (Q03405 23-299): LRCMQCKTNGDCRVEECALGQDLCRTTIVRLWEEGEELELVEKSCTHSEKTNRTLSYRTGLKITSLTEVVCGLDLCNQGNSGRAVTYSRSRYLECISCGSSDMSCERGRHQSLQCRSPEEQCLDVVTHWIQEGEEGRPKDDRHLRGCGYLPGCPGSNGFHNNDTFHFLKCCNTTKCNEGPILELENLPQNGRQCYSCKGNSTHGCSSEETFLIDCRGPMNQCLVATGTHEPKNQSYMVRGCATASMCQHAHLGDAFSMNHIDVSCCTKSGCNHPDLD

[3] = biological target: dimeric suPAR (human) (UniProt Q03405); assay: SPR; Biacore T200; suPAR monomer or dimer captured on anti-uPAR antibody immobilised on a CM5 chip; ATF (0.14-33.3 nM) or scuPA (0.54-44.4 nM) flowed over; 10 mM HEPES, 150 mM NaCl, 3 mM EDTA, 0.005% P-20, pH 7.4, 20 °C; 1:1 Langmuir fit

response [1] | stoichiometry N (ATF molecules per uPAR dimer) [2] | Kd [3] [nM] | Substance
0.43 |  |  | uPAR^WT fused with mRuby3 (suPAR-mRuby3-GPI) (from UniProt Q03405) E49P
 | 2 | 0.672 | amino terminal fragment of uPA (ATF) (domain or fragment)
0.27 |  |  | uPAR^WT fused with mRuby3 (suPAR-mRuby3-GPI) (from UniProt Q03405) H47C; N259C
